Experimental findings from patent US20120009123A1, “Albumin binding peptide-mediated disease targeting” (ABRAXIS BIOSCIENCE, LLC, priority 2008, published 2012) are described below.

Experiment [1] has as its system squamous cervix (A431) line. The experiment can be described thus: cells. As to conditions: Homo sapiens, A-431, read-out: IC50, in vitro cytotoxicity.
Experiment [2] has as its target human serum albumin (HSA) (Homo sapiens, UniProt P02768). In words: peptide phage display library screening (panning). The experiment is classed as binding. As to conditions: for assessment of sequence after fourth round of panning: about 100 plaques sequenced, FIG. 11. The method, then:
A commercial peptide phage display library (12-mer peptides in M13) was screened for peptides which bind to human serum albumin (HSA) (see FIG. 10). Four rounds of panning were completed as follows:
1. The phage library was screened by coating a 100 ug/ml HSA solution onto the wells of 12-well plate and exposing the wells to 1-2×1011 pfu phage. Bound phage were eluted with a 0.2M Glycine, pH2.2 buffer to yield 15×10^5 pfu/ml (which became 5×1013 pfu/ml after amplification);
2. The second panning was eluted with a 0.2M Glycine, pH 2.2 buffer to yield 12×10^6 pfu/ml (8×1013 pfu/ml after amplification);
3. The third panning was eluted with 250 ug/ml HSA for 1 hr to yield 5×10^5 pfu/ml (2×1012 pfu/ml after amplification); and
4. a fourth panning was eluted with a 0.2M Glycine, pH2.2 buffer to yield 14×10^8 pfu/ml. After the fourth round of panning, about 100 plaques were selected, amplified and sequenced.

Experiment [3] has as its target binding of albumin to SPARC (Homo sapiens, UniProt P02768). In words: competitive binding assays with SPARC C-terminal cysteine-poor domain peptides. To be noted: general statement in the description. The method, then: The 15 mer SPARC C-terminal, cysteine-poor domain-spanning peptides were used in competitive binding assays. Specifically, the SPARC peptides were immobilized onto PVDF-attached 96 well plate in an overnight incubation at 4° C. (5 μg/well). The next day the plate was washed with DPBS and blocked for an hour with 5% Non-fat dry milk in DPBS. Next, 100 μl of DPBS was added to each well except the wells in first row. A vial of Alexa 488-BSA (5 mg) was dissolved with 1.2 ml of 25% HSA. Then, 100 μl of BSA-HSA was mixed with 100 μl of SPARC peptides prepared as 4 mg/ml in DPBS (resulting in a final concentration of the Alexa 488-BSA and peptides in first row of about 200 ug/well each). Serial dilution was made down to each column. The plate was incubated for an hour in a dark place, was washed, and the fluorescence was read. […] To further localize the SPARC albumin binding site SPARC sub-fragments were made (FIG. 8). In particular, peptides #103 ([…]) (SEQ ID NO: 66) and #104 ([…]) are subfragments of the sole active peptide, peptide #47.

For a further experiment, the target named is T1, human serum albumin (human, UniProt P02768 25-609).
T1 construct: also called HSA; human albumin
The experiment can be described thus: M13 12-mer phage display, four rounds of panning on coated HSA, sequencing of about 100 plaques.

In experiment [4] the test system is human serum albumin spiked with Alexa fluor 488 conjugated bovine serum albumin. The experiment can be described thus: SPARC-albumin interaction: SPARC immobilized on PVDF, fluorescent albumin binding. To be noted: for albumin binding: polypeptide immobilized 5 μg/well on PVDF, FIG. 2. The method, then:
Full length, wild-type SPARC (“WT”), a SPARC deletion mutant in which the glutamine at residue 3 is deleted (“Q3”) or SPARC treated with Cathepsin K were immobilized on PVDF membrane and exposed to decreasing concentrations of human serum albumin spiked with Alexa fluor 488 conjugated bovine serum albumin.
In the initial experiment, full length, wild-type SPARC and “Q3” mutant SPARC polypeptides were immobilized onto PVDF-attached 96 well plate by overnight at 4° C. incubation (5 μg/well). The next day the plate was washed with DPBS and blocked for an hour with 5% non-fat dry milk in DPBS. 100 μl of DPBS was added to each well. A vial of Alexa 488-BSA (5 mg) was dissolved with 1.2 ml of 25% Human Serum Albumin (“HSA”) and 100 μl of BSA-HSA mix was added to wells of first row of plate (resulting in a final concentration of Alexa 488-BSA in first row becomes about 200 μg/well). Serial dilutions were made down each column and the plate was incubated for an hour in a dark place. After 1 hr incubation, the membrane was washed with PBS and the amount of albumin remained quantified by fluorescent plate reader.
Thirty μg of recombinant human (“rh”) SPARC was incubated with 0.4 μg of Cathepsin K for 10, 30, 60 and 120 minutes. […] Accordingly, overlapping 15 mer peptides were prepared which spanned the SPARC C-terminal, cysteine-poor domain (FIG. 6).

For another experiment, the target named is T2, albumin binding to SPARC (Homo sapiens, UniProt P09486).
T2 construct: Full length, wild-type SPARC (“WT”)
T2 sequence (P09486 18-303): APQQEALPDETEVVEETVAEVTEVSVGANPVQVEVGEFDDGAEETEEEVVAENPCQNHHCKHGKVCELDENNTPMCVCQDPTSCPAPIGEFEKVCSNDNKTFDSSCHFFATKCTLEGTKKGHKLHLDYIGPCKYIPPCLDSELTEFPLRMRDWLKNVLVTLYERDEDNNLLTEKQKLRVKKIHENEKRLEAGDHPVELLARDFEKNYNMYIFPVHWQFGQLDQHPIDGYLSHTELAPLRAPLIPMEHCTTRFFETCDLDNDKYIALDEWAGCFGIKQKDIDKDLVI
The experiment can be described thus: follow-up competitive studies of albumin binding to SPARC.

Values after ≈ are worked out from the molar mass of the structure shown.

As a reminder, the IC50 is the concentration that gives 50% inhibition. `CC(=O)O[C@H]1C(=O)[C@@]2(C)[C@H]([C@H](OC(=O)c3ccccc3)[C@]3(O)C[C@H](OC(=O)[C@H](O)[C@@H](NC(=O)c4ccccc4)c4ccccc4)C(C)=C1C3(C)C)[C@]1(OC(C)=O)CO[C@@H]1C[C@@H]2O` [TAX]: the 50% inhibitory concentration (IC50) in experiment [1] was found to be 0.012 µg/mL (≈ 0.0141 µM).

Turning to “KNHGATRTTRAS [SEQ ID NO: 2, called Peptide 47 in b190]”, in experiment [2], the “assessment of sequence after fourth round of panning” value is given as “probably be a true ligand”. Besides, the “binding to human albumin” value in experiment [2] (general statement in the description) is given as “binds human albumin with great avidity”.

For the molecule “MYIFPVHWQFGQLDQ [peptide #47, 15 mer, amino acids 209-223 of the human SPARC protein]”, the “binding to human albumin” value in experiment [3] is on record as “binds human albumin with great avidity”.

As to WPHHHHTRLSTV, the “assessment of sequence after fourth round of panning” value in experiment [2] was “nonspecific binding”.

B1: KNHGATRTTRAS (Peptide 47; SEQ ID NO: 2) (peptide)
peptide: KNHGATRTTRAS
Consider B1, for which, in the experiment with human serum albumin, the binding result is “binds”.

B2: Q3: SPARC deletion mutant in which the glutamine at residue 3 is deleted (protein)
chain: APQEALPDETEVVEETVAEVTEVSVGANPVQVEVGEFDDGAEETEEEVVAENPCQNHHCKHGKVCELDENNTPMCVCQDPTSCPAPIGEFEKVCSNDNKTFDSSCHFFATKCTLEGTKKGHKLHLDYIGPCKYIPPCLDSELTEFPLRMRDWLKNVLVTLYERDEDNNLLTEKQKLRVKKIHENEKRLEAGDHPVELLARDFEKNYNMYIFPVHWQFGQLDQHPIDGYLSHTELAPLRAPLIPMEHCTTRFFETCDLDNDKYIALDEWAGCFGIKQKDIDKDLVI
B2: the albumin binding entry in experiment [4] is “bind albumin”.

B3: SPARC: Secreted Protein, Acidic, Rich in Cysteines; full length, wild-type, 303 amino acid glycoprotein (protein)
chain: T2 sequence (P09486 18-303)
For B3, in experiment [4] (cathepsin K digest 60 min, FIG. 5), the “albumin binding after cathepsin K digest” value is recorded as “obliterated”. In experiment [4], the albumin binding result was “bind albumin”. The “IC50 of albumin binding to SPARC” value with albumin binding to SPARC came out at 5%.
